What was measured:
[1] = biological target: β-gal-Core-192 (HCV-241) (hepatitis C virus); assay: sandwich ELISA, C7-50 coated, detected with llama serum and HRP-goat-anti-llama antibody
[2] = biological target: β-gal-Core-192 (HCV-241) (hepatitis C virus); assay: lateral flow immunoassay, C7-50 labelled with colloidal gold, purified rabbit antibody on the test line
[3] = biological target: β-gal-Core-192 (HCV-241) (hepatitis C virus); assay: sandwich ELISA, C7-50 capture, llama anti-serum detection

Sequence of β-gal-Core-192 (HCV-241) (hepatitis C virus) (P00722 2-1024): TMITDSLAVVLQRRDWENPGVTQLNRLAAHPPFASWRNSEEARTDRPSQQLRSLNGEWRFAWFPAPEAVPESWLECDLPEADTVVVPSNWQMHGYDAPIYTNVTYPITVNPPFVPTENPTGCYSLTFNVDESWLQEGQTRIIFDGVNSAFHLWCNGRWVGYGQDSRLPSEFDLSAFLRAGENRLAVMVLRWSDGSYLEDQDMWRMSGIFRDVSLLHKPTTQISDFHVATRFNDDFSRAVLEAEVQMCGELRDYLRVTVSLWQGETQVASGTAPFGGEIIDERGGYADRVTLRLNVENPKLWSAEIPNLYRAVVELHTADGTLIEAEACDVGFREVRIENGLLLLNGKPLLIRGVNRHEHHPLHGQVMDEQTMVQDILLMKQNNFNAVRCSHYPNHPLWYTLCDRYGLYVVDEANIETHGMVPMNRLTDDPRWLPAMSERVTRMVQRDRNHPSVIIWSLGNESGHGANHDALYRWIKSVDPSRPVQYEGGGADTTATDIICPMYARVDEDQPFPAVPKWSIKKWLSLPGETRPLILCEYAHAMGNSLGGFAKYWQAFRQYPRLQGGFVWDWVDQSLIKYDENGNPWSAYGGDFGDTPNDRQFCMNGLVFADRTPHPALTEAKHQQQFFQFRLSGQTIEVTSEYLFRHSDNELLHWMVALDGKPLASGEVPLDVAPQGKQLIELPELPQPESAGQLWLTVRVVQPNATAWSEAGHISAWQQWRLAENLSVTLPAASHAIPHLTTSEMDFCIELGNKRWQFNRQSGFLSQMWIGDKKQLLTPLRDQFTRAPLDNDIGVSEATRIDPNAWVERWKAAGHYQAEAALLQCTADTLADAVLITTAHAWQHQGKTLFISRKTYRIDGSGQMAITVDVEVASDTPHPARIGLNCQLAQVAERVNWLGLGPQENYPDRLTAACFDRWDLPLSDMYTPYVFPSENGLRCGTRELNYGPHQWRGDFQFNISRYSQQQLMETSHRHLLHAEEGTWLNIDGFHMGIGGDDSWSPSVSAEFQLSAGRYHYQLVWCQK

Substance “mouse monoclonal antibody (clone C7-50), Abcam” has an OD450 at 0 ng/ml antigen (background) [1] of 0.181 OD450, an OD450 at 8 ng/ml antigen [1] of 0.221 OD450 and an OD450 at 40 ng/ml antigen [1] of 0.214 OD450. It also gave an OD450 at 200 ng/ml antigen [1] of 0.3 OD450, an OD450 at 1000 ng/ml antigen [1] of 0.494 OD450 and an OD450 at 5000 ng/ml antigen [1] of 1.74 OD450. The OD450 at 25000 ng/ml antigen [1] was 2.18 OD450, the OD450 at 125000 ng/ml antigen [1] was 2.27 OD450 and the antigen concentration detected in LFIA [2] was 0.3 ng/µL. The detection limit of the sandwich ELISA [3] was under 40 ng/mL.
